Measured values: the supplement of paper PMC9112550, “Optimization of the antimicrobial peptide Bac7 by deep mutational scanning” (BMC Biology, 2022)

Tested on: Escherichia coli TOP10
Assay: shrunken log2 fold change of peptide-encoding DNA abundance (4.5 h post-induction vs induction); higher = less antimicrobial activity (less host growth inhibition)
Settings: time post-induction: 4.5 h; library: site-saturation at positions 5, 18, 19, 20
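Also: peptides expressed intracellularly from a pBAD plasmid library in pooled LB shake-flask culture, induced with 0.3% L-arabinose, DNA abundance read by NGS, three biological replicates, DESeq2 with apeglm shrinkage.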

In the case of RRIRKRPPRLPRPRPRPCSCPRP, the “shrunken log2 fold change” value is reported as 0.018.

With RRIRKRPPRLPRPRPRPCSSPRP the “shrunken log2 fold change” value was -0.0581.

In the case of RRIRKRPPRLPRPRPRPCSWPRP, the “shrunken log2 fold change” value is reported as 0.123.

In the case of RRIRKRPPRLPRPRPRPCTTPRP, the “shrunken log2 fold change” value is reported as -0.132.

For RRIRKRPPRLPRPRPRPCTVPRP, the “shrunken log2 fold change” value was 0.23.

For RRIRKRPPRLPRPRPRPCVQPRP, the “shrunken log2 fold change” value was -0.038.

With RRIRKRPPRLPRPRPRPCVTPRP the “shrunken log2 fold change” value was 0.0632.

With RRIRKRPPRLPRPRPRPCVVPRP the “shrunken log2 fold change” value was 0.0713.

With RRIRKRPPRLPRPRPRPCWDPRP the “shrunken log2 fold change” value was 0.0719.

With RRIRKRPPRLPRPRPRPCYEPRP the “shrunken log2 fold change” value was -0.311.

RRIRKRPPRLPRPRPRPDAWPRP was tested, and the “shrunken log2 fold change” value was -0.0106.

In the case of RRIRKRPPRLPRPRPRPDDQPRP, the “shrunken log2 fold change” value is reported as -0.018.

For RRIRKRPPRLPRPRPRPDEMPRP, the “shrunken log2 fold change” value was 0.188.

In the case of RRIRKRPPRLPRPRPRPDGWPRP, the “shrunken log2 fold change” value is reported as 0.152.

With RRIRKRPPRLPRPRPRPDHIPRP the “shrunken log2 fold change” value was -0.0249.

In the case of RRIRKRPPRLPRPRPRPDHNPRP, the “shrunken log2 fold change” value is reported as -0.276.

With RRIRKRPPRLPRPRPRPDHTPRP the “shrunken log2 fold change” value was 0.0503.

RRIRKRPPRLPRPRPRPDKAPRP was tested, and the “shrunken log2 fold change” value was 0.0987.

For RRIRKRPPRLPRPRPRPDKGPRP, the “shrunken log2 fold change” value was -0.022.

For RRIRKRPPRLPRPRPRPDMQPRP, the “shrunken log2 fold change” value was -0.0618.

RRIRKRPPRLPRPRPRPDNDPRP was tested, and the “shrunken log2 fold change” value was -0.00188.

In the case of RRIRKRPPRLPRPRPRPDNFPRP, the “shrunken log2 fold change” value is reported as -0.0455.

With RRIRKRPPRLPRPRPRPDQTPRP the “shrunken log2 fold change” value was -0.0185.

With RRIRKRPPRLPRPRPRPDRTPRP the “shrunken log2 fold change” value was 0.0739.

In the case of RRIRKRPPRLPRPRPRPDSQPRP, the “shrunken log2 fold change” value is reported as 0.0697.

For RRIRKRPPRLPRPRPRPDTIPRP, the “shrunken log2 fold change” value was 0.163.

RRIRKRPPRLPRPRPRPDTVPRP was tested, and the “shrunken log2 fold change” value was 0.00611.

For RRIRKRPPRLPRPRPRPDTWPRP, the “shrunken log2 fold change” value was 0.35.

In the case of RRIRKRPPRLPRPRPRPDVSPRP, the “shrunken log2 fold change” value is reported as -0.382.

In the case of RRIRKRPPRLPRPRPRPDVVPRP, the “shrunken log2 fold change” value is reported as -0.0061.

For RRIRKRPPRLPRPRPRPDWNPRP, the “shrunken log2 fold change” value was 0.158.

With RRIRKRPPRLPRPRPRPDYLPRP the “shrunken log2 fold change” value was 0.111.

With RRIRKRPPRLPRPRPRPEANPRP the “shrunken log2 fold change” value was 0.0281.

For RRIRKRPPRLPRPRPRPECCPRP, the “shrunken log2 fold change” value was 0.327.

For RRIRKRPPRLPRPRPRPECRPRP, the “shrunken log2 fold change” value was 0.313.

With RRIRKRPPRLPRPRPRPEEFPRP the “shrunken log2 fold change” value was 0.227.

With RRIRKRPPRLPRPRPRPEEMPRP the “shrunken log2 fold change” value was -0.000157.

For RRIRKRPPRLPRPRPRPEGGPRP, the “shrunken log2 fold change” value was 0.543.

For RRIRKRPPRLPRPRPRPEGVPRP, the “shrunken log2 fold change” value was 1.44.

With RRIRKRPPRLPRPRPRPEHTPRP the “shrunken log2 fold change” value was -0.0305.

RRIRKRPPRLPRPRPRPEILPRP was tested, and the “shrunken log2 fold change” value was 0.728.

RRIRKRPPRLPRPRPRPEIPPRP was tested, and the “shrunken log2 fold change” value was -0.00514.

In the case of RRIRKRPPRLPRPRPRPEIWPRP, the “shrunken log2 fold change” value is reported as 2.45.

With RRIRKRPPRLPRPRPRPEKDPRP the “shrunken log2 fold change” value was 0.518.

With RRIRKRPPRLPRPRPRPELPPRP the “shrunken log2 fold change” value was 0.114.

In the case of RRIRKRPPRLPRPRPRPENFPRP, the “shrunken log2 fold change” value is reported as -0.00264.

With RRIRKRPPRLPRPRPRPEPAPRP the “shrunken log2 fold change” value was 1.45.

With RRIRKRPPRLPRPRPRPEPDPRP the “shrunken log2 fold change” value was 0.877.

With RRIRKRPPRLPRPRPRPEPYPRP the “shrunken log2 fold change” value was -0.0587.

With RRIRKRPPRLPRPRPRPEQCPRP the “shrunken log2 fold change” value was 0.025.

For RRIRKRPPRLPRPRPRPEQFPRP, the “shrunken log2 fold change” value was -0.0303.

With RRIRKRPPRLPRPRPRPESAPRP the “shrunken log2 fold change” value was 1.72.

In the case of RRIRKRPPRLPRPRPRPESPPRP, the “shrunken log2 fold change” value is reported as 0.188.

RRIRKRPPRLPRPRPRPETPPRP was tested, and the “shrunken log2 fold change” value was 1.89.

RRIRKRPPRLPRPRPRPEWDPRP was tested, and the “shrunken log2 fold change” value was 0.12.

RRIRKRPPRLPRPRPRPEWNPRP was tested, and the “shrunken log2 fold change” value was 0.599.

For RRIRKRPPRLPRPRPRPEYDPRP, the “shrunken log2 fold change” value was 1.13.

For RRIRKRPPRLPRPRPRPEYVPRP, the “shrunken log2 fold change” value was -0.00396.

In the case of RRIRKRPPRLPRPRPRPFCCPRP, the “shrunken log2 fold change” value is reported as 0.27.

RRIRKRPPRLPRPRPRPFELPRP was tested, and the “shrunken log2 fold change” value was -0.000946.
